# Laboratory results: the DeepSol protein solubility set
# Experiment: soluble on expression in E. coli; label from the status in PepcDB or PDB records
row,Sequence,soluble on expression in E. coli
1,MAHHHHHHMVLITSNCARVAAFTRKAACSGALCDRHRCISGGGRGDLFTRHAGAFKPPAFGVLRGLTHSSQTTHPQTGQLQARKRIQHAMHDRTLSGSGHHRTAVATWSYLLHSLRQNVEQAVPDALYEKLLTDEVPLTPAESRQLADAHRLLRFELQKRIGLLEDSLADAALPYLLQWPALFQRAWLRLPMDQGRASVTEANHDAVVPAPPSFVHAPAALPVTEWAPTLSPASPPACSNGLIGRGALVPRLAQLTRHVIRCVEEDLGRLEHVSEPREDGVPRSRRQVALEAAWRAQWASLLTWHAGVSYGMG,soluble
2,MAHHHHHHMVRKVWIGQGDVVLVSKRSFNKNDIVDVIHRYNPAEVRALVKDEVIPRDFRSSDERDAKNAHSDYVFVAENDDDGGADDDDQNVLDRNKVVLDDPLATFDEL,not soluble
3,MAHHHHHHMWINKIGNKSASFINHKHFHPGNIKNLERVWLAEENEKKRKEEEEKYLKKREEQYKLYELKKQLRKNEEENKNDVHNILYDINNELKKENSFKKKILHNSISNETTPNENIVNKILIRSKYDEDIFLKNHRSIYGSYYDKEKNKWGFKCCTNIDKNSKCTNNTNCSYNLNNNLIKKDLTKSKNKKKKKKKLIVDNSITAVLNKI,not soluble
4,MAHHHHHHMYFLGEERHFRVLSLSFGVRGLQGSVTSEAAKIQTQMALQQTAYSACSRKVHCVSKHYLDDPFVHFFSRDMTIVNSPLMNRGTWLRTVAIERSVLSFARNWSADGPLQVISFGSGVDTLYFRLKKDHSEVNIVRYIELDFPDLVAEKQRVIEKTERLNQLVGPEYELVPCDLQKPDELREILKRVARNDVPTVLLAEMVFVYLEERTTTAILELTLNDVLKRDMCVLLIAYDAIRPNDRFGEVMVNSLASSGVPLRGIKELPTPEAHAERCKRVGLKSVMATSMRQLYLSVPQETQEWLKKLEMVDDWDEWCIMHDHYCFVLATNKAEALPTIF,not soluble
5,MAHHHHHHMYGGNFSIPEFILKHEKYEKERLKIKRNKYLKRNIYKDNYSFIYFIFLHNINEHVEITTNNFDLLKGQLEELKKNTNNHIKGIILKNVIKSNNNNYSYFSKLYIPITNIYTCMPDNICSREKNKNPESKPFCDLIVSGYKNQMMNKIYEKFKKLGNQYV,not soluble
6,MAHHHHHHSLAKRIVGSTPKQDGFRMPGEFEPQEKVWMIWPERPDNWRDGGKPVQEAFTNVAKAISQFTPMNVVVSQQQFQNCRRQLPPEITVYEMSNNDAWVRDCGPSFVINDHGEIRGVDWTFNAWGGLVDGLYFPWDQDDLVAQKICEIEHVDSYRTDDFVLEGGSFHVDGQGTVLTTEMCLLSEGRNPQLSKEAIEQKLCDYLNVEKVLWLGDGIDPEETNGHVDDVACFIAPGEVACIYTEDQNSPFYEAAQDAYQRLLKMTDAKGRQLKVHKLCCPVKNVTIKGSFKIDFVEGTMPREDGDICIASYMNFLITNDGVIVPQYGDENDHLALEQVQTMFPDKKIVGVNTVEVVYGGGNIHCITQQEPKREG,not soluble
7,MAHHHHHHSLNVLSVSSEIYPLIKTGGLADVVGALPIALEAHGVRTRTLIPGYPAVKAAVTDPVKCFEFTDLLGEKADLLEVQHERLDLLILDAPAYYERSGGPYLGQTGKDYPDNWKRFAALSLAAARIGAGVLPGWRPDMVHAHDWQAAMTPVYMRYAETPEIPSLLTIHNIAFQGQFGANIFSKLALPAHAFGMEGIEYYNDVSFLKGGLQTATALSTVSPSYAEEILTAEFGMGLEGVIGSRAHVLHGIVNGIDADVWNPATDHLIHDNYSAANLKNRALNKKAVAEHFRIDDDGSPLFCVISRLTWQKGIDLMAEAVDEIVSLGGRLVVLGAGDVALEGALLAAASRHHGRVGVAIGYNEPLSHLMQAGCDAIIIPSRFEPCGLTQLYALRYGCIPVVARTGGLADTVIDANHAALASKAATGVQFSPVTLDGLKQAIRRTVRYYHDPKLWTQMQKLGMKSDVSWEKSAGLYAALYSQLISKGHEG,not soluble
8,MAHHHHHHVDDDDKMYQSAIKVEPASPPYYSEKTQLYNKPHEEPSNSLMAIECRVCGDKASGFHYGVHACEGCKGFFRRTIRLKLIYDRCDLNCRIHKKSRNKCQYCRFQKCLAVGMSHNAIRFGRMPQAEKEKLLAEISSDIDQLNPESADLRALAKHLYDSYIKSFPLTKAKARAILTGKTTDKSPFVIYDMNSLMMGEDKIKFKHITPLQEQSKEVAIRIFQGCQFRSVEAVQEITEYAKSIPGFVNLDLNDQVTLLKYGVHEIIYTMLASLMNKDGVLISEGQGFMTREFLKSLRKPFGDFMEPKFEFAVKFNALELDDSDLAIFIAVIILSGDRPGLLNVKPIEDIQDNLLQALELQLKLNHPESSQLFAKLLQKMTDLRQIVTEHVQLLQVIKKTETDMSLHPLLQEIYKDLY,soluble
9,MAHMVNGKVALVTGAAQGIGRAFAEALLLKGAKVALVDWNLEAGVQCKAALHEQFEPQKTLFIQCDVADQQQLRDTFRKVVDHFGRLDILVNNAGVNNEKNWEKTLQINLVSVISGTYLGLDYMSKQNGGEGGIIINMSSLAGLMPVAQQPVYCASKHGIVGFTRSAALAANLMNSGVRLNAICPGFVNTAILESIEKEENMGQYIEYKDHIKDMIKYYGILDPPLIANGLITLIEDDALNGAIMKITTSKGIHFQDYGSKENLYFQ,soluble
10,MAHVVVLGAGLGGSIMAYELHQQLRSEDRITVVTRDPTYHFVPSNPWVAVGWRTRSHISADLAPTMQRLGIAFRTVPATRLVPAENRVELADGTALDYDYLVVATGPELAFDEIEGFGPEGHTQSICHVDHAEAAHAAFERFCENPGPIVVGAAQGASCFGPAYEFAFILDAALRRRRIRDRVPMTFVTSEPYIGHLGLDGVGDTKGLLESALRSRHIKWITSARISRVEAGTMHVEEVAEGGATKPHALPFGYAMMLPAFRGVKAVSGIEGLSNPRGFTLVDPHQRNPTFPNIFAVGVCVAIPPMGVTPVPVGVPKTGFMIESMVTATAHNIGALVRGKEPDEVATWNAVCLADFGDRGIAFIAQPQIPPRNVNWSAEGRWVHFAKIAFEKYFLRKVKLGTAEPLYEWAAMKMLGIDKLKAARKGLEHHHHHH,not soluble
11,MAIIGIDLGTTNSLVATWSEDGATLIPNVLGEFLTPSVVSVDETGEILVGRIAKERLITHPQLTAATFKRFIGTEKKYELGTYTFSSEELSSFVIKSLKQDAEAYLNEEVTGAVISVPAYFNDTQRKSTKRAAEIAGLTVERLISEPTAAAIAYGLYQEESETKFLVFDLGGGTFDVSILELFEGIMDVKSIAGDNYLGGEDFTRSLMTFFLESHQLDPDSLDSKTLSLIYTQAERCKLTLCNESAATMNVVIQNQTYETSINRGEFEKIVTPLLLRLRYPIERALRDASLNPNDLDAVILIGGATRMPLVKSVISKMFGRMPYANINPDETVALGAAIQVALKERNKALEEVILTDVCPYSLGTSVVQEFGDGKSESGYFFPIIERNTPIPVSKVERLYTVKDKQQFITIDVYQGENRRVVNNLKLGELKIKIPPAPAGNESVDIRYTYDINGILEVEVISTSTGEKKRTIIQQNAGNLTDAEIEKRLLELRDIKIHPRDREENRLLLAKCERLYEELLGDERKKISILLQQFESVLTTQNDKKIKEASSILKEHIESMERWANR,not soluble
12,MAIIKRSAATDNPNIEILSTPEQIDVLSAEALMEALQGDDLEQILRAIHQLEAADSVEFQQHQAALFTLLDRDTEQNPCSDAVFSLLAIRNNDEITTRLIPLLDSEAPYLRNQAIEILQHSPQQLERHIQDLLNHQDPDVRIFAIDIIGLLPHQSVPEWLMQVLQHEEHINVIGTAIDRVAQLSDPNFSTILGEVKQRFSHVPYLVFACDVAIKRLNT,not soluble
13,MAIINGSQYIERVDNLQSNVWINGERVVGKLSEHPAFAGAIRSQARLYDAQHDPTKQPVLTFRTSTGELAGAAFLRPATKEDLEHRRLAFQEWARLTAGMMGRSPDYMNHRRDGARLGR,not soluble
14,MAIPGNMWIYDDGGALIKGGCDVADREFSIEFKGFHHNLSIPTDHATGKPTGTRQHSPMIIVKEFDYSSPYLYKAVATGQNLKSAEIKWYKISDAGQEVEYFNMLLEGVRIVSISPTMASPEDKNNNHLESVELRYEKITWKHCDGNIIFTDAWNERQTA,not soluble
15,MAISSRNTLLAALAFIAFQAQAVNVTVAYQTSAEPAKVAQADNTFAKESGATVDWRKFDSGASIVRALASGDVQIGNLGSSPLAVAASQQVPIEVFLLASKLGNSEALVVKKTISKPEDLIGKRIAVPFISTTHYSLLAALKHWGIKPGQVEIVNLQPPAIIAAWQRGDIDGAYVWAPAVNALEKDGKVLTDSEQVGQWGAPTLDVWVVRKDFAEKHPEVVKAFAKSAIDAQQPYIANPDVWLKQPENISKLARLSGVPEGDVPGLVKGNTYLTPQQQTAELTGPVNKAIIDTAQFLKEQGKVPAVANDYSQYVTSRFVQ,soluble
16,MAISSVGFACRSFSPVRTLQSHCLWKIRFNTVAAAIETMDESDGFATDSDRQDKVSDEPRDREWKQLNSKDLGLSSSMIAKSTRKVLNGLKSKGHDVYLVGGCVRDLILKRTPKDFDILTSAELREVSSFSTSAQNSSRNTRTECKESSGSDGDEDCIRLNNCLQRDFTINGLMFDPYAKVVYDYLGGMEDIRKAKVRTVIHAGTSFHQDCARILRAIRIAARLGFRMSKETAHFIKNLSLLVQRLDKGRILMEMNYMLAYGSAEASLRLLWKFGILEILLPIQAAYLARSGFRRRDKRTNMLLSLFANLDKLLAPDRPCHSSLWIAILAFHKALADKPRSPIVVAAFSLAVHNCGDILEAVEITKKITRPHDKSFFELVEPEENLDFQTLLDEVMDLDASIEDALNQMTDAYFISKAMSAYPQAPYSDLVFIPLQLYLRAGRIFDCVKNEETRIGFEAKQGSKIEYGSLNSGYFPEIRHVFARVVFDTVFPLNLSQEL,soluble
17,MAITEFDTSLPSIRQLQNLIKQAAPVEIKLVTGDAITGRVLWQDPTCVCIADENSRQTTIWKQAIAYLQPKG,soluble
18,MAITVKGLTNKLTRTQRRIAVVEFIFSLLFFLPKEAEVIQADFLEYDTKERQLNEWQKLIVKAFSENIFSFQKKIEEQQLKNQLEIQTKYNKISGKKIDLLTTAVVLCALSEQKAHNTDKPLLISEALLIMDHYSQGAEKKQTHALLDKLL,soluble
19,MAKAAAGKKASPVKRVKKGGKAKDPNAPKRAMSAFFFWMQENRERIKKPGMGVADVAKAAGVEWGKLTDKSRWEKKAADDKKRYEVDIANYKKSQ,soluble
20,MAKAGGITNAVNVGIAVQADWENREFISHISLNVRRLFEFLVQFGKPHSLTYFSVLGFEFN,not soluble
21,MAKAPDVVDLLALAVERGASDLVITVGLPPMLKIDGEFHPTEYEPLTPQETRRLMYALMDEKQQRIFEEEKELDFSFSLPGKGRYRVNVFLQRGSVGGVLRVVPSAVKSFEELGLPKNIAEIAMSPRGLVLVTGPTGSGKSTTLASMIDYINERKACHIVTIEDPIEFFHKHKRAIVNQREIGSDTKSFHKALRSVLRQAPDVILVGEMRDYETIAAAITAAETGHLVMGTLHTNSAPETIDRIVDVFPENQQEQVRVQLSNNLVAVLTQQLLPKAFGGGRVLAYELMIATPAVRALIREGKTHQLRSVIQTGGQYGMITMDACLADLYRRKLITYEMGLARAVDPKEFMRLAGAPEGARR,soluble
22,MAKIYNAPKPKYSGWEWFKFIAIRTVFPPVLLWDLIKIGANKLLGEWVSGLVLPAQNENFDDLAISDDTVSNYNEDDLICEKHDVITHDGAHLDTFEVRHRSQESIDPKYQKYIINLVGNGMCYEHIIDDIKEDSKALKANVIGFNLRGVGQSTGKAKSSEDLVADGIAQVQRLLDQGVSPQNITLKGHSLGAGVASLVAQHFHQLGQPINLFNSRSFSTITNFLVGHMRLERDEIGRAIGHKDSTVGTILGWLAKPFIKFGVALAKWEINAGSAFKSVPEAYKDYIVVRSRKEIRGERIDDAVIPHYASIHKELASERHKKKAEIDEEIANLDDIIRKADPLAKPGLANARDALVQAREKIKSDRKMETDVQYANGHNSDWNALHNRSGKSAQTFFREFVQRTEADHAVKSIPEIN,not soluble
